The supplement of paper PMC11136658

System: peptide library, one residue held at a place counted from the Y acceptor
Assay: relative phosphorylation of the sub-library (ratio to the mean residue at this position); higher = residue favoured
How it was run: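 Every value reflects phosphorylation relative to the mean randomized residue. The sum of the 18 randomized residues, or 16 in the Ser/Thr-free library, served to normalize intensities at each position, which were then multiplied by that number. Intensities came from phosphorimaging with ImageQuant of biotinylated Tyr-centred peptides captured on streptavidin membranes after 90 min with purified recombinant kinases and 50 μM ATP plus γ-32P-ATP.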

Chain of EPHA4, construct: aa610-887, human (P54764 610-887, looked up): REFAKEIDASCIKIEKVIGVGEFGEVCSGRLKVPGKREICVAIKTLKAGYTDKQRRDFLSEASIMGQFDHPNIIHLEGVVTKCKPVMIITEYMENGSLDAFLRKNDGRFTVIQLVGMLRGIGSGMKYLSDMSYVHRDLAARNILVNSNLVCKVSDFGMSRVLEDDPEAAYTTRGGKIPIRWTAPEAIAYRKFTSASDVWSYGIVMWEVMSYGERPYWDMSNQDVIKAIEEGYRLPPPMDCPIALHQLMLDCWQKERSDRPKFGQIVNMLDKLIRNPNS

EPHA4, construct: aa610-887, human (from UniProt P54764)
relative phosphorylation
Conditions | at +1 | at +2 | at +3 | at +4 | at +5 | at -1 | at -2 | at -3 | at -4 | at -5
A fixed | 1.32 | 0.737 | 0.831 | 0.822 | 0.978 | 0.712 | 1.1 | 0.763 | 1.03 | 1.01
D fixed | 1.31 | 2.05 | 0.748 | 1.15 | 1.18 | 2.37 | 1.27 | 1.2 | 1.28 | 1.11
E fixed | 3.45 | 2.28 | 0.728 | 1.52 | 1.29 | 1.52 | 1.41 | 1.34 | 1.23 | 1.02
F fixed | 0.73 | 1.14 | 1.22 | 0.976 | 1.25 | 0.885 | 0.778 | 1.24 | 1.16 | 1.08
G fixed | 0.817 | 0.564 | 0.695 | 0.991 | 1.1 | 0.533 | 0.929 | 0.804 | 1.11 | 1.02
H fixed | 0.631 | 0.779 | 0.833 | 1.07 | 0.933 | 0.672 | 0.865 | 0.873 | 0.867 | 0.959
I fixed | 0.966 | 0.952 | 2.01 | 0.831 | 0.904 | 1.72 | 0.931 | 1.12 | 0.962 | 0.981
K fixed | 0.473 | 0.527 | 0.525 | 0.679 | 0.67 | 0.513 | 0.825 | 0.594 | 0.836 | 0.965
L fixed | 0.782 | 0.829 | 1.35 | 0.859 | 1.01 | 1.45 | 1.06 | 0.976 | 1.01 | 1.03
M fixed | 1.06 | 0.86 | 1.13 | 0.923 | 0.938 | 0.802 | 0.777 | 0.851 | 0.902 | 1.01
N fixed | 0.6 | 1.09 | 0.694 | 0.883 | 0.901 | 1.57 | 1.05 | 0.901 | 0.896 | 1
P fixed | 0.509 | 0.757 | 1.5 | 1.25 | 1.44 | 0.641 | 1.42 | 0.94 | 1.12 | 1.05
Q fixed | 1.02 | 0.797 | 0.708 | 0.909 | 0.82 | 0.638 | 1.07 | 0.753 | 1.04 | 0.95
R fixed | 0.505 | 0.624 | 0.588 | 0.764 | 0.727 | 0.555 | 0.849 | 0.649 | 0.834 | 0.98
S fixed | 0.757 | 0.756 | 0.685 | 0.897 | 0.945 | 0.689 | 1.1 | 0.851 | 0.919 | 0.921
T fixed | 0.74 | 0.785 | 0.733 | 0.881 | 0.922 | 0.935 | 0.834 | 1.87 | 0.815 | 0.854
V fixed | 1.38 | 0.997 | 1.59 | 0.84 | 0.879 | 1.08 | 0.95 | 0.959 | 0.861 | 0.918
W fixed | 0.948 | 1.48 | 1.45 | 1.76 | 1.12 | 0.718 | 0.79 | 1.31 | 1.13 | 1.14
pThr fixed | 1.73 | 2.97 | 0.917 | 1.23 | 1.13 | 2.06 | 1.1 | 0.813 | 0.997 | 0.912
pTyr fixed | 1.87 | 8.24 | 1.28 | 1.75 | 1.33 | 2.22 | 1.09 | 1.01 | 1.09 | 1.07
